In patent publication US20250304643A1 (BAINAN BIOTECH, published 2025):
Residue numbers refer to the chain shown, from its start. *1 amine or outer side, *2 acyl side, *3 side chain or, on linkers, in order; H or OH if unused. Where no end group is shown, it is not given here. Side-chain parts run from the residue outwards. [ ]: non-standard residue; d: D form. The star is where a group is joined. C18 diacid = O=C(O)CCCCCCCCCCCCCCCCC(=O)*; C16 diacid = O=C(O)CCCCCCCCCCCCCCC(=O)*; γGlu = O=C(O)[C@H](CCC(=O)[*:2])N[*:1]; Palmitoyl = CCCCCCCCCCCCCCCC(=O)*; Decanoyl = CCCCCCCCCC(=O)*; AEEA = NCCOCCOCC(=O)O; Aib = CC(C)(N)C(=O)O

B1: Compound no. 52 (peptide)
peptide: Palmitoyl-HADGTFISDYSTILDNLAARDFINWLIATKITKNDWKHNITQ
B2: Compound no. 57 (peptide)
peptide: HADGTFISDYSTILDKLAARDFINWLIQTK(C16 fatty acid)ITK
B3: Compound no. 58 (peptide)
peptide: HADGTFISDYSTILDKLAARDFINWLIQTKITK(C16 fatty acid)
B4: Compound no. 50 (peptide)
peptide: Palmitoyl-HADGTFISDYSTILDNLAARDFIEWLIQTKITKNDWKHNITQ
B5: Compound no. 51 (peptide)
peptide: Palmitoyl-HADGTFISDYSTILDNLAARDFINWLIETKITKNDWKHNITQ
B6: Compound no. 53 (peptide)
peptide: Palmitoyl-HADGTFISDYST[Aib]LDNLAARDFINWLIQTKITKNDWKHNITQ
B7: Compound no. 54 (peptide)
peptide: H[Aib]DGTFISDYK([γGlu-Decanoyl])T[Aib]LDNLAARDFINWLIQTKITGNDWKHNITQ-OH
B8: Compound no. 48 (peptide)
peptide: Palmitoyl-HADGTFISDYSTILDELAARDFINWLIQTKITKNDWKHNITQ
B9: Compound no. 49 (peptide)
peptide: Palmitoyl-HADGTFISDYSTILDNLAARDFINWLIQTKITKAEWKHAITQ
B10: Compound no. 60 (peptide)
peptide: HADGTFISDYSTILDNLAARDFINWLIQTKGKK([AEEA-AEEA-γGlu-C18 diacid])
modifications: also: K33: γGlu-C18-diacid linker 2xAEEA-γGlu
B11: Compound no. 66 (peptide)
peptide: HGEGSFGSDMSIALDKLAARDFVNWLLQTKITD
modifications: also: C14 fatty acid at C-terminus, attachment not given here
B12: Compound no. 62 (peptide)
peptide: HADGTFISDYST[Aib]LDK([AEEA-AEEA-γGlu-C18 diacid])LAARDFINWLIQTKGKK
B13: Compound no. 63 (peptide)
peptide: HXDGTFISDYSTILDNLAARDFINWLIQTKITK
modifications: Aib at 2; K(C10) at 33 (C-terminal residue); C-terminus -OH
B14: Compound no. 65 (peptide)
peptide: B13 peptide with I13X
modifications: Aib at 2 and 13; K(C10) at 33 (C-terminal residue); C-terminal amide (-NH2)
B15: Compound no. 64 (peptide)
peptide: HADGTFISDYSTILDK([AEEA-AEEA-γGlu-C18 diacid])LAARDFINWLIQTKGKK
B16: Compound no. 25 (peptide)
peptide: H[Aib]DGK([γGlu-C16 diacid])FISDYST[Aib]LDNLAARDFINWLIQTKITK-OH
modifications: N-terminus assumed
SMILES: CC[C@H](C)[C@H](NC(=O)[C@H](Cc1ccccc1)NC(=O)[C@H](CCCCNC(=O)CC[C@H](NC(=O)CCCCCCCCCCCCCCC(=O)O)C(=O)O)NC(=O)CNC(=O)[C@H](CC(=O)O)NC(=O)C(C)(C)NC(=O)[C@@H](N)Cc1c[nH]cn1)C(=O)N[C@@H](CO)C(=O)N[C@@H](CC(=O)O)C(=O)N[C@@H](Cc1ccc(O)cc1)C(=O)N[C@@H](CO)C(=O)N[C@H](C(=O)NC(C)(C)C(=O)N[C@@H](CC(C)C)C(=O)N[C@@H](CC(=O)O)C(=O)N[C@@H](CC(N)=O)C(=O)N[C@@H](CC(C)C)C(=O)N[C@@H](C)C(=O)N[C@@H](C)C(=O)N[C@@H](CCCNC(=N)N)C(=O)N[C@@H](CC(=O)O)C(=O)N[C@@H](Cc1ccccc1)C(=O)N[C@H](C(=O)N[C@@H](CC(N)=O)C(=O)N[C@@H](Cc1c[nH]c2ccccc12)C(=O)N[C@@H](CC(C)C)C(=O)N[C@H](C(=O)N[C@@H](CCC(N)=O)C(=O)N[C@H](C(=O)N[C@@H](CCCCN)C(=O)N[C@H](C(=O)N[C@H](C(=O)N[C@@H](CCCCN)C(=O)O)[C@@H](C)O)[C@@H](C)CC)[C@@H](C)O)[C@@H](C)CC)[C@@H](C)CC)[C@@H](C)O
B17: Compound no. 54 (peptide)
peptide: H[Aib]DGTFISDYK([γGlu-Decanoyl])T[Aib]LDNLAARDFINWLIQTKITGNDWKHNITQ-OH
B18: Compound no. 11 (peptide)
peptide: B13 peptide with S11K
modifications: Aib at position 2; K(γGlu-C16) at position 11; C-terminal -OH

These binders were tested against T1, human GIPR (glucose-dependent insulinotropic polypeptide receptor) (human, UniProt P48546 22-466) (assay: cell-based or functional assay).
T1 sequence (looked up): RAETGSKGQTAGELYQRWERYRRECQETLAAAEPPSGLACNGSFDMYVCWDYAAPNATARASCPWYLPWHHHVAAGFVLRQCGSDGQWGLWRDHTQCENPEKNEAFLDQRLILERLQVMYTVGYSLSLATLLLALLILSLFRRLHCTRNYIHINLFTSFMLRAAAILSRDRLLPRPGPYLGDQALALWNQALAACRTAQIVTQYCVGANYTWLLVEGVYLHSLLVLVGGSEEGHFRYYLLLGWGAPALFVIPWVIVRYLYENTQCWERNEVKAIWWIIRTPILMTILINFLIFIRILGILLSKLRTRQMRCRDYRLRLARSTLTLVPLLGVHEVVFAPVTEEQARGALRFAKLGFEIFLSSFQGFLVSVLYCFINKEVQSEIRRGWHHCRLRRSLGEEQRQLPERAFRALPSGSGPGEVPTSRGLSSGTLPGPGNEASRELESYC

| Binder | cAMP assay: EC50 (nM) GIPR [nM] | cAMP assay: Efficacy GIPR [%] |
| --- | --- | --- |
| B1 | 0.251 | 96 |
| B2 | 12.6 | 97 |
| B3 | 1.41 | 74 |
| B4 | 0.891 | 101 |
| B5 | 0.398 | 104 |
| B6 | 0.316 | 90 |
| B7 | 1.17 | 86 |
| B8 | 2.82 | 112 |
| B9 | 2.82 | 105 |

Each binder was assayed against T2, human GLP-2R (glucagon-like peptide-2 receptor) (human, UniProt O95838 1-553) (assay: cell-based or functional assay).
T2 sequence (looked up): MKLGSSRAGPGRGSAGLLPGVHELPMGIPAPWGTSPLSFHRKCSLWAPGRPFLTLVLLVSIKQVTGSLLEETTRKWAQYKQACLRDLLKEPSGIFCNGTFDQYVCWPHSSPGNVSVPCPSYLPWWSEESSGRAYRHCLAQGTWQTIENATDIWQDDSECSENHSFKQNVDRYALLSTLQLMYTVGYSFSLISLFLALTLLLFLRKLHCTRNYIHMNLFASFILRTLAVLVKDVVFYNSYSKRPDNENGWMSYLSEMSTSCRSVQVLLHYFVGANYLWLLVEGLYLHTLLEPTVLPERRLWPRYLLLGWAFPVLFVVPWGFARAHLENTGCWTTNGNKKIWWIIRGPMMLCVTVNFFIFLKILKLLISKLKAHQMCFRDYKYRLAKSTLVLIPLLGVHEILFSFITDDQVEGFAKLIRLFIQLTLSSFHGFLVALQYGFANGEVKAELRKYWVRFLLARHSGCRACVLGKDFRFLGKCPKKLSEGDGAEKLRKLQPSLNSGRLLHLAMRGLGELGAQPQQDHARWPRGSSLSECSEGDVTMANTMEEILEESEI

| Binder | cAMP assay: EC50 (nM) GLP-2R [nM] | cAMP assay: Efficacy GLP-2R [%] | cAMP assay: logEC50 GLP-2R |
| --- | --- | --- | --- |
| B1 | 7.9 | 68 | 8.1 |
| B4 | 10 | 70 | 8 |
| B5 | 12.6 | 66 | 7.9 |
| B6 | 4 | 79 | 8.2 |
| B8 | 25.1 | 69 | 7.6 |
| B9 | 35.5 | 92 | 7.5 |

Each binder was assayed against T3, human GLP-1R (GLP-1 receptor) (human, UniProt P43220 24-463) (assay: cell-based or functional assay).

| Binder | cAMP assay: EC50 (nM) GLP-1R [nM] | cAMP assay: Efficacy GLP-1R [%] | cAMP assay: logEC50 GLP-1R |
| --- | --- | --- | --- |
| B2 | 100 | 73 | 7 |
| B7 | 39.8 | 8 | 7.4 |

Biological target: T1, human GIPR (glucose-dependent …)
Test: cell-based or functional assay
Remark: another data set of the same source

| Binder | cAMP assay: Efficacy GIPR [%] |
| --- | --- |
| B10 | 93 |
| B11 | 97 |
| B12 | 86 |
| B13 | 99 |
| B14 | 107 |

Biological target: T2, human GLP-2R (glucagon-like peptide-2 …)
Test: cell-based or functional assay
Remark: another data set of the same source

| Binder | cAMP assay: Efficacy GLP-2R [%] |
| --- | --- |
| B10 | 90 |
| B15 | 75 |
| B12 | 83 |
| B13 | 105 |
| B14 | 77 |

Biological target: T3, human GLP-1R (GLP-1 receptor)
Test: cell-based or functional assay
Remark: another data set of the same source

| Binder | cAMP assay: Efficacy GLP-1R [%] |
| --- | --- |
| B10 | 105 |
| B15 | 85 |
| B12 | 85 |
| B13 | 84 |
| B14 | 76 |

These binders were tested against T4, rat GIPR (rat, UniProt P43219 19-455) (assay: cell-based or functional assay).
T4 sequence (looked up): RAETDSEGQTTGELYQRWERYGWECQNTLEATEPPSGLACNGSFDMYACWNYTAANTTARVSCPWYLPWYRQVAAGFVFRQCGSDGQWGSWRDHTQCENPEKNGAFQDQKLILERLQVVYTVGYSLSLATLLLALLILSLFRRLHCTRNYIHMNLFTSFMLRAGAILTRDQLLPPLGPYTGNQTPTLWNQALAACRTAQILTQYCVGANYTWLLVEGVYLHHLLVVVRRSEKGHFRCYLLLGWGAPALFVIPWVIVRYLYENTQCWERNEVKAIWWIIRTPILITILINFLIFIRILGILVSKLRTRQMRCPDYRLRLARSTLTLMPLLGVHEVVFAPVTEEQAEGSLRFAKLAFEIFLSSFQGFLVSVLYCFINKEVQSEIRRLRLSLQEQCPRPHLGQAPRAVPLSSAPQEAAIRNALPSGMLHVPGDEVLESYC

| Binder | Efficacy (%) | pEC50 |
| --- | --- | --- |
| B16 | 71.7 | 8 |

The binders below were run against macaque GIPR (macaque) (assay: cell-based or functional assay).

| Binder | Efficacy (%) | pEC50 |
| --- | --- | --- |
| B17 | 71.8 | 7.7 |
| B18 | 92.5 | 9 |
